Biological target: T1, 4-1BB antigen (human, UniProt Q07011 24-186, limits assumed)
T1 construct: also called human 4-1BB antigen; human 4-1BB protein
Test: BLI (ForteBio), antibody on AHQ sensor, 100 nM 4-1BB antigen, 1:1 model
Method: ForteBio affinity determination was performed according to the existing method (Estep, P et al., Solution-based measurement of high-throughput antibody-antigen affinity and epitope classification, MAbs, 2013.5(2):p. 270-8). Briefly, the sensor was equilibrated offline for 30 min in the assay buffer, then the baseline was established by detection online for 60 s, and the purified antibody obtained as described above was loaded onto the AHQ sensor online. Then, the sensor was put into 100 nM 4-1BB antigen to act for 5 minutes, and the sensor was transferred to PBS and dissociated for 5 minutes. Analysis of kinetics was performed using a 1:1 binding model.

T1 sequence (Q07011 24-186 limits assumed): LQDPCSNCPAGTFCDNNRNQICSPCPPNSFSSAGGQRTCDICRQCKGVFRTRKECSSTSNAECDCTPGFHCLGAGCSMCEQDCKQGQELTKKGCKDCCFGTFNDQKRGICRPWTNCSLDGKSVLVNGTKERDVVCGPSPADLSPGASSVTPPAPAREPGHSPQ

Row | Binder | Kd [nM]
1 | L-Yr-13&14-13 (Fc fusion) QVQLQESGGGLVQAGDSLRLSCAASGSTFSITAMGWYRQPPGKQRELVASIITGDGDTNYADSVKGRFTISRDNAKNTMYLQMNSLKPEDTAVYYCYARTGYGSSWLMGHEYDYWGQGTQVTVSSTHTCPPCPAPEAAGGPSVFLFPPKPKDTLMISRTPEVTCVVVDVSHEDPEVKFNWYVDGVEVHNAKTKPREEQYNSTYRVVSVLTVLHQDWLNGKEYKCKVSNKALPAPIEKTISKAKGQPREPQVYTLPPSREEMTKNQVSLTCLVKGFYPSDIAVEWESNGQPENNYKTTPPVLDSDGSFFLYSKLTVDKSRWQQGNVFSCSVMHEALHNHYTQKSLSLSPG | 23.2
2 | L-Yr-13&14-11 (Fc fusion) QVQLQESGGGLVQAGDSLRLSCAASGSTFSITAMGWYRQPPGKQRELVAAIIMSDGDTNYQDSVKGRFTISRDNAKNTMYLQMNSLKLEDTAVYYCYARTGYGSGRLMGHEYDYWGQGTQVTVSSTHTCPPCPAPEAAGGPSVFLFPPKPKDTLMISRTPEVTCVVVDVSHEDPEVKFNWYVDGVEVHNAKTKPREEQYNSTYRVVSVLTVLHQDWLNGKEYKCKVSNKALPAPIEKTISKAKGQPREPQVYTLPPSREEMTKNQVSLTCLVKGFYPSDIAVEWESNGQPENNYKTTPPVLDSDGSFFLYSKLTVDKSRWQQGNVFSCSVMHEALHNHYTQKSLSLSPG | 21.6
3 | L-Yr-13&14-08 (Fc fusion) QVQLQESGGGLVQPGGSLRLSCAASGSTFSISAMGWYRQPPGKQRELVALIIMSDGDTNYQDSVKGRFTISRDNANNTMYLQMNSLKLEDTAVYYCYARTGYGSGRLMGHEYDYWGQGTQVTVSSTHTCPPCPAPEAAGGPSVFLFPPKPKDTLMISRTPEVTCVVVDVSHEDPEVKFNWYVDGVEVHNAKTKPREEQYNSTYRVVSVLTVLHQDWLNGKEYKCKVSNKALPAPIEKTISKAKGQPREPQVYTLPPSREEMTKNQVSLTCLVKGFYPSDIAVEWESNGQPENNYKTTPPVLDSDGSFFLYSKLTVDKSRWQQGNVFSCSVMHEALHNHYTQKSLSLSPG | 20.5
4 | A-Ye-03 (Fc fusion) QVQLQESGGGLVQAGGSLRLSCAASGFTLDYYAIGWFRQAPGKEREGVLCISSSGETTYYSDSVKGRFTISRDNAKNKVYLQMNSLKPEDTAVYYCGAELLGSGEGCYVWSRDGSYWGQGTQVTVSSTHTCPPCPAPEAAGGPSVFLFPPKPKDTLMISRTPEVTCVVVDVSHEDPEVKFNWYVDGVEVHNAKTKPREEQYNSTYRVVSVLTVLHQDWLNGKEYKCKVSNKALPAPIEKTISKAKGQPREPQVYTLPPSREEMTKNQVSLTCLVKGFYPSDIAVEWESNGQPENNYKTTPPVLDSDGSFFLYSKLTVDKSRWQQGNVFSCSVMHEALHNHYTQKSLSLSPG | 28.3
5 | A-Na-16 (Fc fusion) QVQLVESGGGLVPPGESLRLSCAASGAIFRINTGAWYRQAPGKQRELVASLTTYGKTTYADFVKGRFTISRDDARNTVSLQMNSLKPEDTAIYYCHIGPEPRYGYWGQGTQVTVSSTHTCPPCPAPEAAGGPSVFLFPPKPKDTLMISRTPEVTCVVVDVSHEDPEVKFNWYVDGVEVHNAKTKPREEQYNSTYRVVSVLTVLHQDWLNGKEYKCKVSNKALPAPIEKTISKAKGQPREPQVYTLPPSREEMTKNQVSLTCLVKGFYPSDIAVEWESNGQPENNYKTTPPVLDSDGSFFLYSKLTVDKSRWQQGNVFSCSVMHEALHNHYTQKSLSLSPG | 20.8
6 | A-Na-18 (Fc fusion) QVQLVESGGGLVPPGESLRLSCAASGAIFRINTGAWYRQAPGKQRELVASLTTYGKTTYADFVKGRFTISRDDAENTVSLQMNSLKPEDTAIYYCHIGPEPRYGYWGQGTQVTVSSTHTCPPCPAPEAAGGPSVFLFPPKPKDTLMISRTPEVTCVVVDVSHEDPEVKFNWYVDGVEVHNAKTKPREEQYNSTYRVVSVLTVLHQDWLNGKEYKCKVSNKALPAPIEKTISKAKGQPREPQVYTLPPSREEMTKNQVSLTCLVKGFYPSDIAVEWESNGQPENNYKTTPPVLDSDGSFFLYSKLTVDKSRWQQGNVFSCSVMHEALHNHYTQKSLSLSPG | 17.5
7 | L-Yr-13&14-17 (Fc fusion) QVQLQESGGGLVQAGGSLRLSCAASRSIFSSYVMAWYRQAPGKERELVALIRYGGSTDYADSVKGRFTISRDNSKNTLILQMNSLKPEDTAMYYCAASKSAYIFDDRDYWGQGTQVTVSSTHTCPPCPAPEAAGGPSVFLFPPKPKDTLMISRTPEVTCVVVDVSHEDPEVKFNWYVDGVEVHNAKTKPREEQYNSTYRVVSVLTVLHQDWLNGKEYKCKVSNKALPAPIEKTISKAKGQPREPQVYTLPPSREEMTKNQVSLTCLVKGFYPSDIAVEWESNGQPENNYKTTPPVLDSDGSFFLYSKLTVDKSRWQQGNVFSCSVMHEALHNHYTQKSLSLSPG | 25.1

Now from value to binder:

Row | Kd [nM] | Binder
8 | 44.7 | L-Yr-13&14-02 (Fc fusion) QVQLQESGGGLVQAGGSLRLSCAASGGTFSITAMGWYRQAPGQQRELVAAIASGDGATNYADFVKGRFTISRDNAKNTMFLQMNSLKPEDSAVYYCYARTGYGSSWPMGHEYDYWGQGTQVTVSSTHTCPPCPAPEAAGGPSVFLFPPKPKDTLMISRTPEVTCVVVDVSHEDPEVKFNWYVDGVEVHNAKTKPREEQYNSTYRVVSVLTVLHQDWLNGKEYKCKVSNKALPAPIEKTISKAKGQPREPQVYTLPPSREEMTKNQVSLTCLVKGFYPSDIAVEWESNGQPENNYKTTPPVLDSDGSFFLYSKLTVDKSRWQQGNVFSCSVMHEALHNHYTQKSLSLSPG
9 | 46 | L-Yr-13&14-10 (Fc fusion) QVQLQESGGGLVQAGGSLRLSCAASGSTFSITAMGWYRQAPGQQRELVAAIASGDGATNYADFVKGRFTISRDNAKNTMFLQMNSLKPEDSAVYYCYARTGYGSSWLMGHEYDYWGQGTQVTVSSTHTCPPCPAPEAAGGPSVFLFPPKPKDTLMISRTPEVTCVVVDVSHEDPEVKFNWYVDGVEVHNAKTKPREEQYNSTYRVVSVLTVLHQDWLNGKEYKCKVSNKALPAPIEKTISKAKGQPREPQVYTLPPSREEMTKNQVSLTCLVKGFYPSDIAVEWESNGQPENNYKTTPPVLDSDGSFFLYSKLTVDKSRWQQGNVFSCSVMHEALHNHYTQKSLSLSPG
10 | 30.8 | L-Yr-13&14-12 (Fc fusion) QVQLQESGGGLVQAGDSLRLSCAASGSTFSITAMGWYRQPPGKQRELVAAIIMSDGDTNYQDSVKGRFTISRDNAKNTMYLQMNSLKPEDTAVYYCYARTGYGSGWLEGHEYDYWGQGTQVTVSSTHTCPPCPAPEAAGGPSVFLFPPKPKDTLMISRTPEVTCVVVDVSHEDPEVKFNWYVDGVEVHNAKTKPREEQYNSTYRVVSVLTVLHQDWLNGKEYKCKVSNKALPAPIEKTISKAKGQPREPQVYTLPPSREEMTKNQVSLTCLVKGFYPSDIAVEWESNGQPENNYKTTPPVLDSDGSFFLYSKLTVDKSRWQQGNVFSCSVMHEALHNHYTQKSLSLSPG
11 | 21 | L-Yr-13&14-09 (Fc fusion) QVQLQESGGGLVQAGGSLKLSCAASGSTFSISAMGWYRQAPGKQRELVAAIVIGDGDTNYADSVKGRFTISRDNAKNTMYLQMNSLKPEDTAVYYCYARTGYGSSWLMGHEYDYWGQGTQVTVSSTHTCPPCPAPEAAGGPSVFLFPPKPKDTLMISRTPEVTCVVVDVSHEDPEVKFNWYVDGVEVHNAKTKPREEQYNSTYRVVSVLTVLHQDWLNGKEYKCKVSNKALPAPIEKTISKAKGQPREPQVYTLPPSREEMTKNQVSLTCLVKGFYPSDIAVEWESNGQPENNYKTTPPVLDSDGSFFLYSKLTVDKSRWQQGNVFSCSVMHEALHNHYTQKSLSLSPG
12 | 14.3 | L-Yr-13&14-07 (Fc fusion) QVQLQESGGGLVQAGDSLRLSCAASGSTFGITAMGWYRQPPGKQRELVAAIIMSDGDTNYQDSVKGRFTISRDNAKNTMYLQMNSLKLEDTAVYYCYARTGYGSGRLMGHEYDYWGQGTQVTVSSTHTCPPCPAPEAAGGPSVFLFPPKPKDTLMISRTPEVTCVVVDVSHEDPEVKFNWYVDGVEVHNAKTKPREEQYNSTYRVVSVLTVLHQDWLNGKEYKCKVSNKALPAPIEKTISKAKGQPREPQVYTLPPSREEMTKNQVSLTCLVKGFYPSDIAVEWESNGQPENNYKTTPPVLDSDGSFFLYSKLTVDKSRWQQGNVFSCSVMHEALHNHYTQKSLSLSPG
13 | 11.9 | A-Ye-13 (Fc fusion) EVQLQESGGGLVQAGGSLRLSCAASGFTFDDYAIGWFRQAPGKEREGVLCISSSGGSTYYADSVKGRFTISRDNAKNTVYLQMTNLKPEDTAVYLCGAPRDCSYYTGDDYWGQGTQVTVSSTHTCPPCPAPEAAGGPSVFLFPPKPKDTLMISRTPEVTCVVVDVSHEDPEVKFNWYVDGVEVHNAKTKPREEQYNSTYRVVSVLTVLHQDWLNGKEYKCKVSNKALPAPIEKTISKAKGQPREPQVYTLPPSREEMTKNQVSLTCLVKGFYPSDIAVEWESNGQPENNYKTTPPVLDSDGSFFLYSKLTVDKSRWQQGNVFSCSVMHEALHNHYTQKSLSLSPG
14 | 15.1 | A-Na-19 (Fc fusion) QVQLVESGGGLVPPGESLRLSCAASGAIFRINTGAWYRQAPGKQRELVASLTTYGKTTYADFVKGRFTISRDDAKNTVYLQMNSLKPEDTAIYYCHIGPEPRYGYWGQGTQVTVSSTHTCPPCPAPEAAGGPSVFLFPPKPKDTLMISRTPEVTCVVVDVSHEDPEVKFNWYVDGVEVHNAKTKPREEQYNSTYRVVSVLTVLHQDWLNGKEYKCKVSNKALPAPIEKTISKAKGQPREPQVYTLPPSREEMTKNQVSLTCLVKGFYPSDIAVEWESNGQPENNYKTTPPVLDSDGSFFLYSKLTVDKSRWQQGNVFSCSVMHEALHNHYTQKSLSLSPG
15 | 222 | A-Ye-04 (Fc fusion) QVQLQESGGGLVPPGESLRLSCAASGAIFRINTGAWYRQAPGKQRELVASLTTYGKTTYADFVKGRFTISRDDAKNTVSLQMNSLKPEDTAIYYCHIGPEPRYGYWGQGTQVTVSSTHTCPPCPAPEAAGGPSVFLFPPKPKDTLMISRTPEVTCVVVDVSHEDPEVKFNWYVDGVEVHNAKTKPREEQYNSTYRVVSVLTVLHQDWLNGKEYKCKVSNKALPAPIEKTISKAKGQPREPQVYTLPPSREEMTKNQVSLTCLVKGFYPSDIAVEWESNGQPENNYKTTPPVLDSDGSFFLYSKLTVDKSRWQQGNVFSCSVMHEALHNHYTQKSLSLSPG

Reference: patent US20230357422A1 (published 2023)
